Reference: paper PMC10786891, “Massively parallel profiling of RNA-targeting CRISPR-Cas13d”

T1: EsCas13d, nuclease-dead (Eubacterium siraeum, UniProt B0MS50, R295A;H300A;R849A;H854A)
T1 sequence: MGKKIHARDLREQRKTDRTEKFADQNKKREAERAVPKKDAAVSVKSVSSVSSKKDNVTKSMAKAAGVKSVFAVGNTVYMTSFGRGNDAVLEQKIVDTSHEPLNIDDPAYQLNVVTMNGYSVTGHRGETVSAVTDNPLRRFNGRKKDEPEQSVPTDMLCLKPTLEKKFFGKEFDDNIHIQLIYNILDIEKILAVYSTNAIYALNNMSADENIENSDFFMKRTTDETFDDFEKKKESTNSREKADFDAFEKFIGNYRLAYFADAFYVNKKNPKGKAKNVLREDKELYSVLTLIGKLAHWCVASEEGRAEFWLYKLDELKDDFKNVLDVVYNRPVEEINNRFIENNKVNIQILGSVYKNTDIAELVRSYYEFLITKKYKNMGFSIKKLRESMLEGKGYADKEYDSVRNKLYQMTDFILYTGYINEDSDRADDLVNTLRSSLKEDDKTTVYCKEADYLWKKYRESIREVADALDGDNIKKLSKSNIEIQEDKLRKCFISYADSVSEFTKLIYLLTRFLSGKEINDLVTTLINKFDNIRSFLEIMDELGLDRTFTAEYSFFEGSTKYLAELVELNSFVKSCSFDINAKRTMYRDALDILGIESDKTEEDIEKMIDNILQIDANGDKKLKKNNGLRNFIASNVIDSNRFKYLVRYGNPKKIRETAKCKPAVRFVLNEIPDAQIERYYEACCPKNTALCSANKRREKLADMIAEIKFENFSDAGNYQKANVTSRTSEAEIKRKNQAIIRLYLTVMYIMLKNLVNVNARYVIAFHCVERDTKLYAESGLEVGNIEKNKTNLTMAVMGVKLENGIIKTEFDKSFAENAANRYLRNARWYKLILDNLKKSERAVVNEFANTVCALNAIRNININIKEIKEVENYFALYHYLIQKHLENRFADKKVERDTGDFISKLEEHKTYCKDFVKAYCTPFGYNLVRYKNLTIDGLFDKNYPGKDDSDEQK

B1: target 1 G5A,A16C (mixed)
RNA 1: CACCCGUGCAAAAAUGCAGGGGUCUAAAACUGAGCGGAUAACCUCUCUAUGG
RNA 2: GGGAAUGGAUCCACAUCUACGAAUUCGUACCAUAGCGAGGUUAUCCACUCACCGAGAUCGGAAGAGCACACGU
B2: target 1 insG 3' of 22,insG 3' of 2 (mixed)
RNA 1: CACCCGUGCAAAAAUGCAGGGGUCUAAAACUGAGCGGAUAACCUCUCUAUGG
RNA 2: GGGAAUGGAUCCACAUCUACGAAUUCGUACGCAUAGAGAGGUUAUCCGCUCGACCGAGAUCGGAAGAGCACACGU
B3: target 1 insC 3' of 20,insU 3' of 20 (mixed)
RNA 1: CACCCGUGCAAAAAUGCAGGGGUCUAAAACUGAGCGGAUAACCUCUCUAUGG
RNA 2: GGGAAUGGAUCCACAUCUACGAAUUCGUACCACUUAGAGAGGUUAUCCGCUCACCGAGAUCGGAAGAGCACACGU
B4: target 1 C4G,G5C (mixed)
RNA 1: CACCCGUGCAAAAAUGCAGGGGUCUAAAACUGAGCGGAUAACCUCUCUAUGG
RNA 2: GGGAAUGGAUCCACAUCUACGAAUUCGUACCAUAGAGAGGUUAUCCCGUCACCGAGAUCGGAAGAGCACACGU
B5: target 1 insU 3' of 21,insU 3' of 18 (mixed)
RNA 1: CACCCGUGCAAAAAUGCAGGGGUCUAAAACUGAGCGGAUAACCUCUCUAUGG
RNA 2: GGGAAUGGAUCCACAUCUACGAAUUCGUACCUAUAUGAGAGGUUAUCCGCUCACCGAGAUCGGAAGAGCACACGU
B6: target 1 insG 3' of 10,insA 3' of 4 (mixed)
RNA 1: CACCCGUGCAAAAAUGCAGGGGUCUAAAACUGAGCGGAUAACCUCUCUAUGG
RNA 2: GGGAAUGGAUCCACAUCUACGAAUUCGUACCAUAGAGAGGUUGAUCCGCAUCACCGAGAUCGGAAGAGCACACGU
B7: target 1 insC 3' of 20,insA 3' of 6 (mixed)
RNA 1: CACCCGUGCAAAAAUGCAGGGGUCUAAAACUGAGCGGAUAACCUCUCUAUGG
RNA 2: GGGAAUGGAUCCACAUCUACGAAUUCGUACCACUAGAGAGGUUAUCCAGCUCACCGAGAUCGGAAGAGCACACGU
B8: target 1 C6A,U10C (mixed)
RNA 1: CACCCGUGCAAAAAUGCAGGGGUCUAAAACUGAGCGGAUAACCUCUCUAUGG
RNA 2: GGGAAUGGAUCCACAUCUACGAAUUCGUACCAUAGAGAGGUCAUCAGCUCACCGAGAUCGGAAGAGCACACGU
B9: target 1 U11A,C22U (mixed)
RNA 1: CACCCGUGCAAAAAUGCAGGGGUCUAAAACUGAGCGGAUAACCUCUCUAUGG
RNA 2: GGGAAUGGAUCCACAUCUACGAAUUCGUAUCAUAGAGAGGAUAUCCGCUCACCGAGAUCGGAAGAGCACACGU
B10: target 1 insA 3' of 21,insU 3' of 1 (mixed)
RNA 1: CACCCGUGCAAAAAUGCAGGGGUCUAAAACUGAGCGGAUAACCUCUCUAUGG
RNA 2: GGGAAUGGAUCCACAUCUACGAAUUCGUACCAAUAGAGAGGUUAUCCGCUCAUCCGAGAUCGGAAGAGCACACGU
B11: target 1 insA 3' of 22,insU 3' of 22 (mixed)
RNA 1: CACCCGUGCAAAAAUGCAGGGGUCUAAAACUGAGCGGAUAACCUCUCUAUGG
RNA 2: GGGAAUGGAUCCACAUCUACGAAUUCGUACAUCAUAGAGAGGUUAUCCGCUCACCGAGAUCGGAAGAGCACACGU
B12: target 1 G12C,A14C (mixed)
RNA 1: CACCCGUGCAAAAAUGCAGGGGUCUAAAACUGAGCGGAUAACCUCUCUAUGG
RNA 2: GGGAAUGGAUCCACAUCUACGAAUUCGUACCAUAGAGCGCUUAUCCGCUCACCGAGAUCGGAAGAGCACACGU
B13: target 1 C4G,U10C (mixed)
RNA 1: CACCCGUGCAAAAAUGCAGGGGUCUAAAACUGAGCGGAUAACCUCUCUAUGG
RNA 2: GGGAAUGGAUCCACAUCUACGAAUUCGUACCAUAGAGAGGUCAUCCGGUCACCGAGAUCGGAAGAGCACACGU
B14: target 1 G15U,G17U (mixed)
RNA 1: CACCCGUGCAAAAAUGCAGGGGUCUAAAACUGAGCGGAUAACCUCUCUAUGG
RNA 2: GGGAAUGGAUCCACAUCUACGAAUUCGUACCAUAUAUAGGUUAUCCGCUCACCGAGAUCGGAAGAGCACACGU
B15: target 1 U8G,G15A (mixed)
RNA 1: CACCCGUGCAAAAAUGCAGGGGUCUAAAACUGAGCGGAUAACCUCUCUAUGG
RNA 2: GGGAAUGGAUCCACAUCUACGAAUUCGUACCAUAGAAAGGUUAGCCGCUCACCGAGAUCGGAAGAGCACACGU
B16: target 1 complement block 2-10 (mixed)
RNA 1: CACCCGUGCAAAAAUGCAGGGGUCUAAAACUGAGCGGAUAACCUCUCUAUGG
RNA 2: GGGAAUGGAUCCACAUCUACGAAUUCGUACCAUAGAGAGGUAUAGGCGAGACCGAGAUCGGAAGAGCACACGU
B17: target 1 insG 3' of 9,insC 3' of 8 (mixed)
RNA 1: CACCCGUGCAAAAAUGCAGGGGUCUAAAACUGAGCGGAUAACCUCUCUAUGG
RNA 2: GGGAAUGGAUCCACAUCUACGAAUUCGUACCAUAGAGAGGUUAGUCCCGCUCACCGAGAUCGGAAGAGCACACGU
B18: target 1 insU 3' of 21,insA 3' of 4 (mixed)
RNA 1: CACCCGUGCAAAAAUGCAGGGGUCUAAAACUGAGCGGAUAACCUCUCUAUGG
RNA 2: GGGAAUGGAUCCACAUCUACGAAUUCGUACCUAUAGAGAGGUUAUCCGCAUCACCGAGAUCGGAAGAGCACACGU
B19: target 1 insC 3' of 15,insU 3' of 7 (mixed)
RNA 1: CACCCGUGCAAAAAUGCAGGGGUCUAAAACUGAGCGGAUAACCUCUCUAUGG
RNA 2: GGGAAUGGAUCCACAUCUACGAAUUCGUACCAUAGAGCAGGUUAUCUCGCUCACCGAGAUCGGAAGAGCACACGU
B20: target 1 insC 3' of 14,insA 3' of 4 (mixed)
RNA 1: CACCCGUGCAAAAAUGCAGGGGUCUAAAACUGAGCGGAUAACCUCUCUAUGG
RNA 2: GGGAAUGGAUCCACAUCUACGAAUUCGUACCAUAGAGACGGUUAUCCGCAUCACCGAGAUCGGAAGAGCACACGU
B21: target 1 insC 3' of 13,insU 3' of 6 (mixed)
RNA 1: CACCCGUGCAAAAAUGCAGGGGUCUAAAACUGAGCGGAUAACCUCUCUAUGG
RNA 2: GGGAAUGGAUCCACAUCUACGAAUUCGUACCAUAGAGAGCGUUAUCCUGCUCACCGAGAUCGGAAGAGCACACGU
B22: target 1 insG 3' of 9,insU 3' of 7 (mixed)
RNA 1: CACCCGUGCAAAAAUGCAGGGGUCUAAAACUGAGCGGAUAACCUCUCUAUGG
RNA 2: GGGAAUGGAUCCACAUCUACGAAUUCGUACCAUAGAGAGGUUAGUCUCGCUCACCGAGAUCGGAAGAGCACACGU
B23: target 1 U19C,A20G (mixed)
RNA 1: CACCCGUGCAAAAAUGCAGGGGUCUAAAACUGAGCGGAUAACCUCUCUAUGG
RNA 2: GGGAAUGGAUCCACAUCUACGAAUUCGUACCGCAGAGAGGUUAUCCGCUCACCGAGAUCGGAAGAGCACACGU
B24: target 1 complement block 1-10 (mixed)
RNA 1: CACCCGUGCAAAAAUGCAGGGGUCUAAAACUGAGCGGAUAACCUCUCUAUGG
RNA 2: GGGAAUGGAUCCACAUCUACGAAUUCGUACCAUAGAGAGGUAUAGGCGAGUCCGAGAUCGGAAGAGCACACGU
B25: target 1 U10A,G15A (mixed)
RNA 1: CACCCGUGCAAAAAUGCAGGGGUCUAAAACUGAGCGGAUAACCUCUCUAUGG
RNA 2: GGGAAUGGAUCCACAUCUACGAAUUCGUACCAUAGAAAGGUAAUCCGCUCACCGAGAUCGGAAGAGCACACGU
B26: target 1 C7A,A20G (mixed)
RNA 1: CACCCGUGCAAAAAUGCAGGGGUCUAAAACUGAGCGGAUAACCUCUCUAUGG
RNA 2: GGGAAUGGAUCCACAUCUACGAAUUCGUACCGUAGAGAGGUUAUACGCUCACCGAGAUCGGAAGAGCACACGU
B27: target 1 U19A,A20G (mixed)
RNA 1: CACCCGUGCAAAAAUGCAGGGGUCUAAAACUGAGCGGAUAACCUCUCUAUGG
RNA 2: GGGAAUGGAUCCACAUCUACGAAUUCGUACCGAAGAGAGGUUAUCCGCUCACCGAGAUCGGAAGAGCACACGU
B28: target 1 insG 3' of 22,insA 3' of 17 (mixed)
RNA 1: CACCCGUGCAAAAAUGCAGGGGUCUAAAACUGAGCGGAUAACCUCUCUAUGG
RNA 2: GGGAAUGGAUCCACAUCUACGAAUUCGUACGCAUAGAAGAGGUUAUCCGCUCACCGAGAUCGGAAGAGCACACGU

Target: T1, EsCas13d, nuclease-dead
Test: crRNA (strand 1, pre-loaded); Mg2+; 40 mM Tris-HCl pH 7.5, 150 mM NaCl, 6 mM MgCl2, 1 mM DTT, 0.1% Tween-20, 0.2 mg/ml BSA; 25 C; 10 min per concentration, then washed
Details: tags: His6-TwinStrep-SUMO cleaved; N-terminal SNAP kept (SNAP-Surface 488); label: 3' end held by stalled T7 RNA polymerase

In order of rising Kd:
1. B13  5.15 ± 0.3 nM
2. B21  11 ± 0.9 nM
3. B7  11.1 ± 0.6 nM
4. B11  12.5 ± 1 nM
5. B16  13.3 ± 0.6 nM
6. B18  15.6 ± 1.3 nM
7. B4  15.7 ± 1 nM
8. B22  16.4 ± 0.8 nM
9. B24  16.6 ± 0.6 nM
10. B19  17.1 ± 0.9 nM
11. B3  18.3 ± 0.9 nM
12. B10  18.5 ± 1.3 nM
13. B8  18.8 ± 1.4 nM
14. B20  24.3 ± 1.9 nM
15. B17  29.5 ± 2.9 nM
16. B25  31 ± 3 nM
17. B6  35 ± 5 nM
18. B2  38 ± 5 nM
19. B26  45 ± 13 nM
20. B5  52 ± 5 nM
21. B9  52 ± 16 nM
22. B23  55 ± 22 nM
23. B15  56 ± 6 nM
24. B27  56 ± 7 nM
25. B1  57 ± 12 nM
26. B28  71 ± 24 nM
27. B14  86 ± 21 nM
28. B12  89 ± 33 nM
